Laboratory results reported in patent US11998613B2, “Antibody-drug conjugates containing an anti-mesothelin antibody and uses thereof” (DEVELOPMENT CENTER FOR BIOTECHNOLOGY, priority 2020, dated 2024).

Assays:
mesothelin protein [1] = molecular target: T1, mesothelin protein (Homo sapiens, UniProt Q13421); assay: Binding kinetics of anti-mesothelin ADCs by surface plasma resonance (Biacore T100); details: analyte MSLN; for Ka: antibody/ADC captured on CM5 chip via anti-human IgG-Fc; for dissociation rate constant (koff): antibody/ADC captured on CM5 chip
Procedure: The kinetic constant of the anti-mesothelin ADCs interaction against mesothelin was determined by surface plasma resonance (Biacore® T100, Biacore, Inc., Piscataway, NJ). The flow cell of the CM5 wafer was fixed with approximately 10,000 reaction units (RU) of anti-human IgG-Fc (Biacore®) in 10 mM glycine pH 5.0 at 10 μL/min for 600 seconds. 10 μg/mL of anti-mesothelin antibody and anti-mesothelin ADCs diluted in TBS at 10 μl/min were captured on CM5 chips. Four concentrations (from 3.7 to 100 nM) of human mesothelin recombinant protein and zero concentration (flow buffer) in 100 μl/min binding were recorded in PBS containing 1 mM CaCl2 for 3 minutes. The dissociation of the complex was measured for 10 minutes. The water surface was regenerated by injecting 3 M MgCl2 and 3 mM EGTA at 10 μl/min for 60 seconds. The curve obtained after subtracting the reference and buffer signals was taken into the 1:1 Langmuir binding model using the Biacore® T100 evaluation software (Biacore®).

[2] = tested on: KLM-1 human pancreatic cancer xenograft; assay: KLM-1 xenograft model (Example 44); assay type: in vivo; details: 30 mg/kg IV once weekly for 3 weeks
Procedure: Each of the formulations was administered intravenously (IV) to the mice once weekly for three weeks.
(§1) Five mice were housed in each cage.
When the average tumor volume had reached 200 mm^3, the mice were randomLy divided into 4 groups (N=6 per group). Each of the vehicle, DCBPR2002-4(DBCO-vc-MMAE) (15 and 30 mg/kg), and naked antibody (DCBPR2002, 30 mg/kg) was intravenously administered once weekly for 3 weeks.
(§2) Differences are considered significant at *P<0.05.

mesothelin protein [3] = molecular target: T1, mesothelin protein; assay: Affinity measurements and kinetic analysis using BIAcore (SPR), mesothelin immobilised; assay type: binding
Procedure: To know the biding kinetics difference among individual antibodies, surface plasmon resonance (SPR) measurement with a BIAcore T200 (Cytiva Inc.) was used as previously described (Karlsson & Falt, (1997) J. Immunol Methods 200:121-133). Carboxymethylated dextran biosensor chips (CM5, Cytiva Inc.) were activated with N-ethyl-N′-(3-dimethylaminopropyl)-carbodiimide hydrochloride (EDC) and N-hydroxysuccinimide (NHS) according to the supplier's instructions. Mesothelin protein was diluted with 10 mM sodium acetate, pH 4.0, into 5 μg/ml before injection at a flow rate of 10 μL/minute to achieve approximately 1500 response units (RU) of coupled protein followed by the injection of 1M ethanolamine to block unreacted groups. For kinetics measurements, two-fold serial dilutions of anti-mesothelin mAb (0.3125 nM to 40 nM) were injected in HBS-EP+ Biacore running buffer provided by the manufacturer (Cytiva Inc.) at 25 degree C. at a flow rate of 30 μL/min, and binding responses on the mesothelin protein were corrected by subtraction of responses on a blank flow cell. Association rates (kon or ka) and dissociation rates (koff or kd) were calculated using a simple one-to-one Langmuir binding model with separate fittings of kon and koff was used. (Cytiva.™. Biacore Insight Evaluation Software).

[4] = tested on: Ovarian carcinoma cell line OVCAR-3 (MSLN+); assay: In vitro cytotoxicity, CellTiter-Glo luminescent cell viability assay, OVCAR-3; assay type: cell-based, human; details: OVCAR-3, 72 hours treatment; read-out: Relative IC50 (nM of toxic payload/ADCs)
Procedure: (§3) The KLM-1 & OVCAR-3 cell lines were maintained in an atmosphere of 5% CO2 in a humidified 37° C. incubator. The day before treatment, cells were collected and seeded into 96-well plates (4,000 cells per well). On the second day, cells were treated with 3-fold serial dilution concentration of toxic payloads and ADCs. Each treatment was performed in eight triplicate data points. After the treatment of 72 hours, cell viability was assessed by CellTiter-Glo® kit (Promega) according to the manufacturer's instruction. At the end of the incubation, luminescence was measured using a SpectraMax i3x Multi Mode Detection Platform (Molecular Devices). Compound cytotoxicity was evaluated in comparison to cells treated with 0.05% PBS (ADCs) or 0.05% DMSO (toxic payload). IC50 values were calculated by fitting viability data with a four-parameter logistic equation using GraphPad prism 5.0 software.

[5] = tested on: KLM-1 human pancreatic cancer xenograft; assay: KLM-1 xenograft model (Example 45); details: 15 mg/kg IV once weekly for 3 weeks
Procedure: Formulations respectively comprising test article DCBPR2002-4(DBCO-vc-MMAE)(15 mg/kg), test article DCBPR2002-4(DBCO-vc-seco-DUBA)(15 mg/kg), test article DCBPR2002-4(DBCO-s-DM1) (15 mg/kg), test article DCBPR2002-2(DBCO-vc-MMAE)-2(DBCO-vc-seco-DUBA) (15 mg/kg), test article DCBPR2002-2(DBCO-vc-MMAE)-2(DBCO-s-DM1) (15 mg/kg), test article DCBPR2002-2(DBCO-vc-seco-DUBA)-2(DBCO-s-DM1) (15 mg/kg), and a corresponding vehicle were formulated by diluting the stock with a 25 mM sodium citrate buffer (pH6.5). Each of the formulations was administered intravenously (IV) once weekly for three weeks.
The KLM-1 cells were maintained in vitro as a monolayer culture in RPMI-1640 medium supplemented with 10% fetal bovine serum at 37° C. in an atmosphere of 5% CO2 in air. The tumor cells were routinely sub-cultured twice weekly by trypsin-EDTA treatment. The cells growing in an exponential growth phase were harvested and counted for tumor inoculation.
Male NOD SCID mice at age of 6-7 weeks were purchased from BioLasco Taiwan Co., LTD. and quarantined for one week. Five mice were housed in each cage. All animals were hosted in the animal facility with a 12-h light/12-h dark cycle at 19-25° C. Animals had free access to rodent pellet foods and water ad libitum.
KLM-1 cells were subcutaneously (SC) implanted (4×10^6 cells in 1:1 PBS/matrigel mixture at 0.1 mL per mouse) into the right flank of male NOD SCID mice. When the average tumor volume had reached 300 mm^3, the mice were randomly divided into 7 groups (N=6 per group). Each of the vehicle, DCBPR2002-4(DBCO-vc-MMAE), DCBPR2002-4(DBCO-vc-seco-DUBA), DCBPR2002-4(DBCO-s-DM1), DCBPR2002-2(DBCO-vc-MMAE)-2(DBCO-vc-seco-DUBA), DCBPR2002-2(DBCO-vc-MMAE)-2(DBCO-s-DM1), DCBPR2002-2(DBCO-vc-seco-DUBA)-2(DBCO-s-DM1) was intravenously administered as 15 mg/kg once weekly for 3 weeks.
The tumor volumes, body weights, mortality, and signs of overt toxicity were monitored and recorded three times weekly for 28 days. Tumor volumes were measured three times per week using calipers and calculated according to the formula: Tumor Volume=(w2×l)/2, where w=width and l=length in diameter (mm) of the tumor. […] One-way ANOVA followed by Dunnett's test was applied for comparison between the vehicle and test article-treated groups. Differences are considered significant at *P<0.05. Animals were weighed three times weekly until the completion of the study.

[6] = tested on: OVCAR-3 human ovarian cancer xenograft; assay: OVCAR-3 xenograft model (Example 46); assay type: in vivo, female NOD SCID mice; details: 15 mg/kg IV once weekly for 3 weeks
Procedure: as §1
OVCAR-3 cells were subcutaneously (SC) implanted (1×10^7 cells in 1:1 PBS/matrigel mixture at 0.2 mL per mouse) into the right flank of female NOD SCID mice. […] Each of the vehicle, DCBPR2002-4(DBCO-vc-MMAE) (15 and 30 mg/kg), and DCBPR2002-4(DBCO-vc-seco-DUBA) (15 mg/kg) was intravenously administered once weekly for 3 weeks.
as §2

[7] = tested on: Pancreatic cancer cell line KLM-1 (MSLN+); assay: In vitro cytotoxicity, CellTiter-Glo luminescent cell viability assay, KLM-1; assay type: cell-based, human; details: KLM-1, 72 hours treatment; read-out: Relative IC50 (nM of toxic payload/ADCs)
Procedure: as §3, with “Pancreatic cancer cell line KLM-1 was respectively grown in RPMI 1640 Medium (ATCC modification) medium supplemented with 10% fetal bovine serum. Ovarian carcinoma cell line OVCAR-3 was grown in RPMI 1640 Medium (ATCC modification) medium supplemented with 20% fetal bovine serum. The KLM-1” for “The KLM-1”

T1 sequence (Q13421 with tags, fused parts or gaps): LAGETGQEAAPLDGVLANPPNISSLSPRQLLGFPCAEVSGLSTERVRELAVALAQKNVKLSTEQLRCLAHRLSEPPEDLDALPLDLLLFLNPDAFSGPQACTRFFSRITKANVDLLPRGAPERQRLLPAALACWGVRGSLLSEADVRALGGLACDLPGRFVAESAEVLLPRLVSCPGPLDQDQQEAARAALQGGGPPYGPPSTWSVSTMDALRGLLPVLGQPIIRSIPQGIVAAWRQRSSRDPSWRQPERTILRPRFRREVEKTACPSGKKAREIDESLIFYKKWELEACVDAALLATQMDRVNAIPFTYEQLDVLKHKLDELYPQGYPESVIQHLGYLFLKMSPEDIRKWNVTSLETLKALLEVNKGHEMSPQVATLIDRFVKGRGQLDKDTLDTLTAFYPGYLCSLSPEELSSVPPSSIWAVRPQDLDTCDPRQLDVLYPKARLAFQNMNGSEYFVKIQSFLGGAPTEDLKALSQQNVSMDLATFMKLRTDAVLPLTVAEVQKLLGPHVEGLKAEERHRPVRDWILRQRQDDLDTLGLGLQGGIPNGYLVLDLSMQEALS

Row | Molecule | Rmax(RU) (mesothelin protein [1]) | Ka (mesothelin protein [1]) | dissociation rate constant (koff) (mesothelin protein [1]) | body weight changes [2] | tumor growth / anti-tumor activity ([2]; TGI≥58% considered significant) | Rmax(RU) (mesothelin protein [3]; BIAcore T200) | ka (mesothelin protein [3]; BIAcore T200, 25 degree C, 1:1 Langmuir model) | kd (mesothelin protein [3]; BIAcore T200, 25 degree C, 1:1 Langmuir model, listed as HuSS1) | kd (mesothelin protein [3]; BIAcore T200, 25 degree C, 1:1 Langmuir model, listed as HuSS1mAb) | IC50 [4] | body weight changes [5] | ranking of efficacy potency [5] | body weight changes [6] | IC50 [7]
1 | DCBPR2002: humanized anti-mesothelin antibody, heavy chain variable region SEQ ID NO: 11, light chain variable region SEQ ID NO: 12 (antibody, V domains shown, Artificial antibody) VH: QVQLVQSGAEVKKPGASVKVSCKASGYSFTGYTMNWVRQAPGQGLEWMGLITPYNGASSYNQKFRGRVTMTRDTSISTAYMELSRLRSDDTAVYYCARGGYDGRGFDYWGQGTLVTVSS VL: EIVLTQSPATLSLSPGERATLSCSASSSVSYMHWYQQKPGQAPRLLIYDTSKLASGIPARFSGSGSGTDFTLTISSLEPEDFAVYYCQQWSKHPLTFGQGTKVEIKR | 58.1 RU | 5.091E+6 | 8.593E−5 | No body weight loss was observed | did not show significant anti-tumor activity | 180.6 RU | 4.493e+06 M⁻¹ s⁻¹ | 1.124e-05 s⁻¹ | 1.124e-05 s⁻¹ |  |  |  |  | 
2 | DCBPR2002-4(DBCO-vc-seco-DUBA): DCBPR2002-4Az reacted with DBCO-vc-seco DUBA; ADC, DAR ~4 (conjugate) VH: QVQLVQSGAEVKKPGASVKVSCKASGYSFTGYTMNWVRQAPGQGLEWMGLITPYNGASSYNQKFRGRVTMTRDTSISTAYMELSRLRSDDTAVYYCARGGYDGRGFDYWGQGTLVTVSS VL: EIVLTQSPATLSLSPGERATLSCSASSSVSYMHWYQQKPGQAPRLLIYDTSKLASGIPARFSGSGSGTDFTLTISSLEPEDFAVYYCQQWSKHPLTFGQGTKVEIKR |  |  |  |  |  |  |  |  |  | 23.9 nM | No body weight loss was observed | DCBPR2002-4(DBCO-vc-seco-DUBA)=DCBPR2002-2(DBCO-vc-MMAE)-2(DBCO-vc-seco-DUBA)=DCBPR2002-2(DBCO-vc-seco-DUBA)-2(DBCO-s-DM1)>DCBPR2002-4(DBCO-vc-MMAE)>DCBPR2002-2(DBCO-vc-MMAE)-2(DBCO-s-DM1)>DCBPR2002-4(DBCO-s-DM1) | No body weight loss was observed | 19.4 nM
3 | DCBPR2002-2(DBCO-vc-MMAE)-2(DBCO-vc-seco-DUBA): dual-payload ADC: DCBPR2002-2(DBCO-vc-MMAE)-2Az reacted with DBCO-vc-seco DUBA; DAR ~4 (conjugate) VH: QVQLVQSGAEVKKPGASVKVSCKASGYSFTGYTMNWVRQAPGQGLEWMGLITPYNGASSYNQKFRGRVTMTRDTSISTAYMELSRLRSDDTAVYYCARGGYDGRGFDYWGQGTLVTVSS VL: EIVLTQSPATLSLSPGERATLSCSASSSVSYMHWYQQKPGQAPRLLIYDTSKLASGIPARFSGSGSGTDFTLTISSLEPEDFAVYYCQQWSKHPLTFGQGTKVEIKR | 50.98 RU | 4.752E+6 | 1.218E−4 |  |  |  |  |  |  | 43.3 nM | No body weight loss was observed | DCBPR2002-4(DBCO-vc-seco-DUBA)=DCBPR2002-2(DBCO-vc-MMAE)-2(DBCO-vc-seco-DUBA)=DCBPR2002-2(DBCO-vc-seco-DUBA)-2(DBCO-s-DM1)>DCBPR2002-4(DBCO-vc-MMAE)>DCBPR2002-2(DBCO-vc-MMAE)-2(DBCO-s-DM1)>DCBPR2002-4(DBCO-s-DM1) |  | 46 nM
